{"source": "patent US20140348819A1", "about": "“Methods of Treating Cancer” (Dana-Farber Cancer Institute, Inc., priority 2011, published 2014)", "molecules": {"B1": {"name": "Gas6 (protein, UniProt Q14393 31-678, looked up)", "Growth arrest-specific …": "ALLPAREATQFLRPRQRRAFQVFEEAKQGHLERECVEELCSREEAREVFENDPETDYFYPRYLDCINKYGSPYTKNSGFATCVQNLPDQCTPNPCDRKGTQACQDLMGNFFCLCKAGWGGRLCDKDVNECSQENGGCLQICHNKPGSFHCSCHSGFELSSDGRTCQDIDECADSEACGEARCKNLPGSYSCLCDEGFAYSSQEKACRDVDECLQGRCEQVCVNSPGSYTCHCDGRGGLKLSQDMDTCEDILPCVPFSVAKSVKSLYLGRMFSGTPVIRLRFKRLQPTRLVAEFDFRTFDPEGILLFAGGHQDSTWIVLALRAGRLELQLRYNGVGRVTSSGPVINHGMWQTISVEELARNLVIKVNRDAVMKIAVAGDLFQPERGLYHLNLTVGGIPFHEKDLVQPINPRLDGCMRSWNWLNGEDTTIQETVKVNTRMQCFSVTERGSFYPGSGFAFYSLDYMRTPLDVGTESTWEVEVVAHIRPAADTGVLFALWAPDLRAVPLSVALVDYHSTKKLKKQLVVLAVEHTALALMEIKVCDGQEHVVTVSLRDGEATLEVDGTRGQSEVSAAQLQERLAVLERHLRSPVLTFAGGLPDVPVTSAPVTAFYRGCMTLEVNRRLLDLDEAAYKHSDITAHSCPPVEPAAA"}}, "test_system": "six V600E BRAF melanoma cell lines", "assay": "Screening of recombinant RTK ligands for ability to confer resistance to BRAFi (PLX4720) or MEKi (PD184352) (Table 4)", "assay_type": "cell-based, human", "set-up": "ability of recombinant RTK ligand to confer resistance / ability of recombinant RTK ligand to confer resistance (screening value): scale not given here", "summary_of_the_method": "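Resistance to BRAFi (PLX4720) or MEKi (PD184352) was tested in six V600E BRAF melanoma lines given one of 22 recombinant RTK ligands. For a subset of RTKs, activation was checked by high-throughput tyrosine kinase phosphorylation profiling and western blot.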", "data": [{"molecule": "B1", "values": [{"measurement": "ability of recombinant RTK ligand to confer resistance", "setting": "A2058, PD184352 - 1 uM, ligand 6.25 ng/ml", "result": 0.99}, {"measurement": "ability of recombinant RTK ligand to confer resistance", "setting": "A2058, PD184352 - 1 uM, ligand 25 ng/ml", "result": 0.97}, {"measurement": "ability of recombinant RTK ligand to confer resistance", "setting": "A2058, PD184352 - 1 uM, ligand 100 ng/ml", "result": 1.02}, {"measurement": "ability of recombinant RTK ligand to confer resistance", "setting": "A2058, PD184352 - 1 uM, ligand 400 ng/ml", "result": 0.97}, {"measurement": "ability of recombinant RTK ligand to confer resistance", "setting": "A2058, PD184352 - 1 uM, ligand 1600 ng/ml", "result": 0.95}, {"measurement": "ability of recombinant RTK ligand to confer resistance", "setting": "A2058, PLX4720 - 2 uM, ligand 6.25 ng/ml", "result": 1.01}, {"measurement": "ability of recombinant RTK ligand to confer resistance", "setting": "A2058, PLX4720 - 2 uM, ligand 25 ng/ml", "result": 1.00}, {"measurement": "ability of recombinant RTK ligand to confer resistance", "setting": "A2058, PLX4720 - 2 uM, ligand 100 ng/ml", "result": 0.98}, {"measurement": "ability of recombinant RTK ligand to confer resistance", "setting": "A2058, PLX4720 - 2 uM, ligand 400 ng/ml", "result": 0.98}, {"measurement": "ability of recombinant RTK ligand to confer resistance", "setting": "A2058, PLX4720 - 2 uM, ligand 1600 ng/ml", "result": 0.97}, {"measurement": "ability of recombinant RTK ligand to confer resistance", "setting": "C32, PD184352 - 1 uM, ligand 6.25 ng/ml", "result": 1.02}, {"measurement": "ability of recombinant RTK ligand to confer resistance", "setting": "C32, PD184352 - 1 uM, ligand 25 ng/ml", "result": 1.01}, {"measurement": "ability of recombinant RTK ligand to confer resistance", "setting": "C32, PD184352 - 1 uM, ligand 100 ng/ml", "result": 1.01}, {"measurement": "ability of recombinant RTK ligand to confer resistance", "setting": "C32, PD184352 - 1 uM, ligand 400 ng/ml", "result": 1.15}, {"measurement": "ability of recombinant RTK ligand to confer resistance", "setting": "C32, PD184352 - 1 uM, ligand 1600 ng/ml", "result": 0.91}, {"measurement": "ability of recombinant RTK ligand to confer resistance", "setting": "C32, PLX4720 - 2 uM, ligand 6.25 ng/ml", "result": 1.05}, {"measurement": "ability of recombinant RTK ligand to confer resistance", "setting": "C32, PLX4720 - 2 uM, ligand 25 ng/ml", "result": 0.89}, {"measurement": "ability of recombinant RTK ligand to confer resistance", "setting": "C32, PLX4720 - 2 uM, ligand 100 ng/ml", "result": 1.00}, {"measurement": "ability of recombinant RTK ligand to confer resistance", "setting": "C32, PLX4720 - 2 uM, ligand 400 ng/ml", "result": 1.05}, {"measurement": "ability of recombinant RTK ligand to confer resistance", "setting": "C32, PLX4720 - 2 uM, ligand 1600 ng/ml", "result": 0.95}, {"measurement": "ability of recombinant RTK ligand to confer resistance", "setting": "Colo 829, PD184352 - 1 uM, ligand 6.25 ng/ml", "result": 0.98}, {"measurement": "ability of recombinant RTK ligand to confer resistance", "setting": "Colo 829, PD184352 - 1 uM, ligand 25 ng/ml", "result": 1.01}, {"measurement": "ability of recombinant RTK ligand to confer resistance", "setting": "Colo 829, PD184352 - 1 uM, ligand 100 ng/ml", "result": 0.98}, {"measurement": "ability of recombinant RTK ligand to confer resistance", "setting": "Colo 829, PD184352 - 1 uM, ligand 400 ng/ml", "result": 0.99}, {"measurement": "ability of recombinant RTK ligand to confer resistance", "setting": "Colo 829, PD184352 - 1 uM, ligand 1600 ng/ml", "result": 1.02}, {"measurement": "ability of recombinant RTK ligand to confer resistance", "setting": "Colo 829, PLX4720 - 2 uM, ligand 6.25 ng/ml", "result": 0.97}, {"measurement": "ability of recombinant RTK ligand to confer resistance", "setting": "Colo 829, PLX4720 - 2 uM, ligand 25 ng/ml", "result": 1.02}, {"measurement": "ability of recombinant RTK ligand to confer resistance", "setting": "Colo 829, PLX4720 - 2 uM, ligand 100 ng/ml", "result": 0.94}, {"measurement": "ability of recombinant RTK ligand to confer resistance", "setting": "Colo 829, PLX4720 - 2 uM, ligand 400 ng/ml", "result": 0.99}, {"measurement": "ability of recombinant RTK ligand to confer resistance", "setting": "Colo 829, PLX4720 - 2 uM, ligand 1600 ng/ml", "result": 1.03}, {"measurement": "ability of recombinant RTK ligand to confer resistance", "setting": "G-361, PD184352 - 1 uM, ligand 6.25 ng/ml", "result": 1.03}, {"measurement": "ability of recombinant RTK ligand to confer resistance", "setting": "G-361, PD184352 - 1 uM, ligand 25 ng/ml", "result": 1.00}, {"measurement": "ability of recombinant RTK ligand to confer resistance", "setting": "G-361, PD184352 - 1 uM, ligand 100 ng/ml", "result": 0.91}, {"measurement": "ability of recombinant RTK ligand to confer resistance", "setting": "G-361, PD184352 - 1 uM, ligand 400 ng/ml", "result": 0.94}, {"measurement": "ability of recombinant RTK ligand to confer resistance", "setting": "G-361, PD184352 - 1 uM, ligand 1600 ng/ml", "result": 0.88}, {"measurement": "ability of recombinant RTK ligand to confer resistance", "setting": "G-361, PLX4720 - 2 uM, ligand 6.25 ng/ml", "result": 0.97}, {"measurement": "ability of recombinant RTK ligand to confer resistance", "setting": "G-361, PLX4720 - 2 uM, ligand 25 ng/ml", "result": 0.95}, {"measurement": "ability of recombinant RTK ligand to confer resistance", "setting": "G-361, PLX4720 - 2 uM, ligand 100 ng/ml", "result": 0.98}, {"measurement": "ability of recombinant RTK ligand to confer resistance", "setting": "G-361, PLX4720 - 2 uM, ligand 400 ng/ml", "result": 0.97}, {"measurement": "ability of recombinant RTK ligand to confer resistance", "setting": "G-361, PLX4720 - 2 uM, ligand 1600 ng/ml", "result": 0.85}, {"measurement": "ability of recombinant RTK ligand to confer resistance", "setting": "SK-MEL-5, PD184352 - 1 uM, ligand 6.25 ng/ml", "result": 0.99}, {"measurement": "ability of recombinant RTK ligand to confer resistance", "setting": "SK-MEL-5, PD184352 - 1 uM, ligand 25 ng/ml", "result": 1.01}, {"measurement": "ability of recombinant RTK ligand to confer resistance", "setting": "SK-MEL-5, PD184352 - 1 uM, ligand 100 ng/ml", "result": 0.97}, {"measurement": "ability of recombinant RTK ligand to confer resistance", "setting": "SK-MEL-5, PD184352 - 1 uM, ligand 400 ng/ml", "result": 0.89}, {"measurement": "ability of recombinant RTK ligand to confer resistance", "setting": "SK-MEL-5, PD184352 - 1 uM, ligand 1600 ng/ml", "result": 0.94}, {"measurement": "ability of recombinant RTK ligand to confer resistance", "setting": "SK-MEL-5, PLX4720 - 2 uM, ligand 6.25 ng/ml", "result": 0.98}, {"measurement": "ability of recombinant RTK ligand to confer resistance", "setting": "SK-MEL-5, PLX4720 - 2 uM, ligand 25 ng/ml", "result": 1.00}, {"measurement": "ability of recombinant RTK ligand to confer resistance", "setting": "SK-MEL-5, PLX4720 - 2 uM, ligand 100 ng/ml", "result": 1.03}, {"measurement": "ability of recombinant RTK ligand to confer resistance", "setting": "SK-MEL-5, PLX4720 - 2 uM, ligand 400 ng/ml", "result": 1.05}, {"measurement": "ability of recombinant RTK ligand to confer resistance", "setting": "SK-MEL-5, PLX4720 - 2 uM, ligand 1600 ng/ml", "result": 0.97}, {"measurement": "ability of recombinant RTK ligand to confer resistance", "setting": "SK-MEL-28, PD184352 - 1 uM, ligand 6.25 ng/ml", "result": 1.03}, {"measurement": "ability of recombinant RTK ligand to confer resistance", "setting": "SK-MEL-28, PD184352 - 1 uM, ligand 25 ng/ml", "result": 0.87}, {"measurement": "ability of recombinant RTK ligand to confer resistance", "setting": "SK-MEL-28, PD184352 - 1 uM, ligand 100 ng/ml", "result": 1.00}, {"measurement": "ability of recombinant RTK ligand to confer resistance", "setting": "SK-MEL-28, PD184352 - 1 uM, ligand 400 ng/ml", "result": 1.01}, {"measurement": "ability of recombinant RTK ligand to confer resistance", "setting": "SK-MEL-28, PD184352 - 1 uM, ligand 1600 ng/ml", "result": 1.14}, {"measurement": "ability of recombinant RTK ligand to confer resistance", "setting": "SK-MEL-28, PLX4720 - 2 uM, ligand 6.25 ng/ml", "result": 1.13}, {"measurement": "ability of recombinant RTK ligand to confer resistance", "setting": "SK-MEL-28, PLX4720 - 2 uM, ligand 25 ng/ml", "result": 0.96}, {"measurement": "ability of recombinant RTK ligand to confer resistance", "setting": "SK-MEL-28, PLX4720 - 2 uM, ligand 100 ng/ml", "result": 1.04}, {"measurement": "ability of recombinant RTK ligand to confer resistance", "setting": "SK-MEL-28, PLX4720 - 2 uM, ligand 400 ng/ml", "result": 1.08}, {"measurement": "ability of recombinant RTK ligand to confer resistance", "setting": "SK-MEL-28, PLX4720 - 2 uM, ligand 1600 ng/ml", "result": 1.22}]}]}
